T1: human CLDN6 (UniProt P56747 1-220)
T1 chain: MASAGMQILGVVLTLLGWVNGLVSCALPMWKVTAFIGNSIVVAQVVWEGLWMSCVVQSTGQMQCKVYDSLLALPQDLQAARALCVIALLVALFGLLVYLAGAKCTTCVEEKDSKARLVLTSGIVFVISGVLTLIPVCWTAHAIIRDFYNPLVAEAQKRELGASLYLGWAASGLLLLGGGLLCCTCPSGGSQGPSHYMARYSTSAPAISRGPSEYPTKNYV

T2: human CLDN9 (UniProt O95484 1-217)
T2 chain: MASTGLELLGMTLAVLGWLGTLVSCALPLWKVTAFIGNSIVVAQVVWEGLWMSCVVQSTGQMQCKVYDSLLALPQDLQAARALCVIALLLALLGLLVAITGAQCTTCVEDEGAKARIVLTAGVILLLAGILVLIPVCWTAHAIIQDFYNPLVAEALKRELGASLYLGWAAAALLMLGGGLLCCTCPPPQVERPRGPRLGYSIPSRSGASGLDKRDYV


Tests used:
human CLDN6 = target: T1, human CLDN6; assay: HEK293E cell binding; avid
human CLDN9 = target: T2, human CLDN9; assay: HEK293E cell binding; avid

Binder	EC50 (human CLDN6) [µg/mL]	EC50 (human CLDN9) [µg/mL]
XENP35070 H2_L1.27 (antibody, V domains shown) VH: EVQLVQSGAEVKKPGESLRISCKTSGYTFTEYTMHWVRQMPGKSLEWMGGIDPNNGNTHYNQKFQGHVTISVDKSISTAYLQWSSLKASDTAMYYCARIYYFGRLYFDFWGAGTLVTVSS VL: DIQMTQSPSSLSASVGDRVTITCQASEDIYNRLAWYQQKPGKVPKLLISGATSLESGVPSRFSGSGSGKDYTFTISSLQPEDIATYYCQQYWSSPLTFGGGTKVEIKR	1.18	29.7
XENP35061 H2_L1.18 (antibody, V domains shown) VH: EVQLVQSGAEVKKPGESLRISCKTSGYTFTEYTMHWVRQMPGKSLEWMGGIDPNNGNTHYNQKFQGHVTISVDKSISTAYLQWSSLKASDTAMYYCARIYYFGRLYFDFWGAGTLVTVSS VL: DIQMTQSPSSLSASVGDRVTITCQASEDIYNRLAWYQQKPGKVPKLLISGTTSLETGVPSRFSGSGSGKDYTFTISSLQPEDIATYYCQQYWSSPLTFGGGTKVEIKR	1.25	56.3
XENP35102 having H2.9_L1 (antibody, V domains shown) VH: EVQLVQSGAEVKKPGESLRISCKTSGYTFTEYTMHWVRQMPGKSLEWMGGIDPNNANTHYNQKFQGHVTISVDKSISTAYLQWSSLKASDTAMYYCARIYYFGRLYFDFWGAGTLVTVSS VL: DIQMTQSPSSLSASVGDRVTITCQASEDIYNRLAWYQQKPGKVPKLLISGATSLETGVPSRFSGSGSGKDYTFTISSLQPEDIATYYCQQYWSSPLTFGGGTKVEIKR	3.53	1.43
XENP35088 H1.4_L1 (antibody, V domains shown) VH: QVQLVQSGAEVKKPGASVKVSCKTSGYTFTEYTMHWVRQAPGQSLEWMGGIDANNGNTHYNQKFQGRVTITVDKSASTAYMELSSLRSEDTAVYYCARIYYFGRLYFDFWGAGTLVTVSS VL: DIQMTQSPSSLSASVGDRVTITCQASEDIYNRLAWYQQKPGKVPKLLISGATSLETGVPSRFSGSGSGKDYTFTISSLQPEDIATYYCQQYWSSPLTFGGGTKVEIKR	1.29	29.2
XENP35101 having H2.8_L1 (antibody, V domains shown) VH: EVQLVQSGAEVKKPGESLRISCKTSGYTFTEYTMHWVRQMPGKSLEWMGGIDPNNDNTHYNQKFQGHVTISVDKSISTAYLQWSSLKASDTAMYYCARIYYFGRLYFDFWGAGTLVTVSS VL: DIQMTQSPSSLSASVGDRVTITCQASEDIYNRLAWYQQKPGKVPKLLISGATSLETGVPSRFSGSGSGKDYTFTISSLQPEDIATYYCQQYWSSPLTFGGGTKVEIKR	24.8	1.06
XENP35065 H2_L1.22 (antibody, V domains shown) VH: EVQLVQSGAEVKKPGESLRISCKTSGYTFTEYTMHWVRQMPGKSLEWMGGIDPNNGNTHYNQKFQGHVTISVDKSISTAYLQWSSLKASDTAMYYCARIYYFGRLYFDFWGAGTLVTVSS VL: DIQMTQSPSSLSASVGDRVTITCQASEDIYNRLAWYQQKPGKVPKLLISGATQLETGVPSRFSGSGSGKDYTFTISSLQPEDIATYYCQQYWSSPLTFGGGTKVEIKR	1.48	69.1
XENP35044 H2_L1.1 (antibody, V domains shown) VH: EVQLVQSGAEVKKPGESLRISCKTSGYTFTEYTMHWVRQMPGKSLEWMGGIDPNNGNTHYNQKFQGHVTISVDKSISTAYLQWSSLKASDTAMYYCARIYYFGRLYFDFWGAGTLVTVSS VL: DIQMTQSPSSLSASVGDRVTITCQASQDIYNRLAWYQQKPGKVPKLLISGATSLETGVPSRFSGSGSGKDYTFTISSLQPEDIATYYCQQYWSSPLTFGGGTKVEIKR	4.34	
XENP35050 H2_L1.7 (antibody, V domains shown) VH: EVQLVQSGAEVKKPGESLRISCKTSGYTFTEYTMHWVRQMPGKSLEWMGGIDPNNGNTHYNQKFQGHVTISVDKSISTAYLQWSSLKASDTAMYYCARIYYFGRLYFDFWGAGTLVTVSS VL: DIQMTQSPSSLSASVGDRVTITCQASEDIYSRLAWYQQKPGKVPKLLISGATSLETGVPSRFSGSGSGKDYTFTISSLQPEDIATYYCQQYWSSPLTFGGGTKVEIKR	2.22	99.3
XENP35047 H2_L1.4 (antibody, V domains shown) VH: EVQLVQSGAEVKKPGESLRISCKTSGYTFTEYTMHWVRQMPGKSLEWMGGIDPNNGNTHYNQKFQGHVTISVDKSISTAYLQWSSLKASDTAMYYCARIYYFGRLYFDFWGAGTLVTVSS VL: DIQMTQSPSSLSASVGDRVTITCQASEDVYNRLAWYQQKPGKVPKLLISGATSLETGVPSRFSGSGSGKDYTFTISSLQPEDIATYYCQQYWSSPLTFGGGTKVEIKR	0.795	17.6

The next lines start with the values.

EC50 (human CLDN6) [µg/mL]	EC50 (human CLDN9) [µg/mL]	Binder
0.978	53.1	XENP35093 (having C6-30 H1.9_L1) (antibody, V domains shown) VH: QVQLVQSGAEVKKPGASVKVSCKTSGYTFTEYTMHWVRQAPGQSLEWMGGIDPNNANTHYNQKFQGRVTITVDKSASTAYMELSSLRSEDTAVYYCARIYYFGRLYFDFWGAGTLVTVSS VL: DIQMTQSPSSLSASVGDRVTITCQASEDIYNRLAWYQQKPGKVPKLLISGATSLETGVPSRFSGSGSGKDYTFTISSLQPEDIATYYCQQYWSSPLTFGGGTKVEIKR
1.24	110	XENP35096 H2.3_L1 (antibody, V domains shown) VH: EVQLVQSGAEVKKPGESLRISCKTSGYTFTEYTMHWVRQMPGKSLEWMGGIDSNNGNTHYNQKFQGHVTISVDKSISTAYLQWSSLKASDTAMYYCARIYYFGRLYFDFWGAGTLVTVSS VL: DIQMTQSPSSLSASVGDRVTITCQASEDIYNRLAWYQQKPGKVPKLLISGATSLETGVPSRFSGSGSGKDYTFTISSLQPEDIATYYCQQYWSSPLTFGGGTKVEIKR
1.16	25	XENP35092 H1.8_L1 (antibody, V domains shown) VH: QVQLVQSGAEVKKPGASVKVSCKTSGYTFTEYTMHWVRQAPGQSLEWMGGIDPNNDNTHYNQKFQGRVTITVDKSASTAYMELSSLRSEDTAVYYCARIYYFGRLYFDFWGAGTLVTVSS VL: DIQMTQSPSSLSASVGDRVTITCQASEDIYNRLAWYQQKPGKVPKLLISGATSLETGVPSRFSGSGSGKDYTFTISSLQPEDIATYYCQQYWSSPLTFGGGTKVEIKR
1.59	31.8	XENP35066 H2_L1.23 (antibody, V domains shown) VH: EVQLVQSGAEVKKPGESLRISCKTSGYTFTEYTMHWVRQMPGKSLEWMGGIDPNNGNTHYNQKFQGHVTISVDKSISTAYLQWSSLKASDTAMYYCARIYYFGRLYFDFWGAGTLVTVSS VL: DIQMTQSPSSLSASVGDRVTITCQASEDIYNRLAWYQQKPGKVPKLLISGATSRETGVPSRFSGSGSGKDYTFTISSLQPEDIATYYCQQYWSSPLTFGGGTKVEIKR
1.2	31.8	XENP35087 H1.3_L1 (antibody, V domains shown) VH: QVQLVQSGAEVKKPGASVKVSCKTSGYTFTEYTMHWVRQAPGQSLEWMGGIDSNNGNTHYNQKFQGRVTITVDKSASTAYMELSSLRSEDTAVYYCARIYYFGRLYFDFWGAGTLVTVSS VL: DIQMTQSPSSLSASVGDRVTITCQASEDIYNRLAWYQQKPGKVPKLLISGATSLETGVPSRFSGSGSGKDYTFTISSLQPEDIATYYCQQYWSSPLTFGGGTKVEIKR
1.43	31.4	XENP35091 H1.7_L1 (antibody, V domains shown) VH: QVQLVQSGAEVKKPGASVKVSCKTSGYTFTEYTMHWVRQAPGQSLEWMGGIDPNQGNTHYNQKFQGRVTITVDKSASTAYMELSSLRSEDTAVYYCARIYYFGRLYFDFWGAGTLVTVSS VL: DIQMTQSPSSLSASVGDRVTITCQASEDIYNRLAWYQQKPGKVPKLLISGATSLETGVPSRFSGSGSGKDYTFTISSLQPEDIATYYCQQYWSSPLTFGGGTKVEIKR
1.1	72.9	XENP35097 H2.4_L1 (antibody, V domains shown) VH: EVQLVQSGAEVKKPGESLRISCKTSGYTFTEYTMHWVRQMPGKSLEWMGGIDGNNGNTHYNQKFQGHVTISVDKSISTAYLQWSSLKASDTAMYYCARIYYFGRLYFDFWGAGTLVTVSS VL: DIQMTQSPSSLSASVGDRVTITCQASEDIYNRLAWYQQKPGKVPKLLISGATSLETGVPSRFSGSGSGKDYTFTISSLQPEDIATYYCQQYWSSPLTFGGGTKVEIKR
1.23	86.8	XENP35062 H2_L1.19 (antibody, V domains shown) VH: EVQLVQSGAEVKKPGESLRISCKTSGYTFTEYTMHWVRQMPGKSLEWMGGIDPNNGNTHYNQKFQGHVTISVDKSISTAYLQWSSLKASDTAMYYCARIYYFGRLYFDFWGAGTLVTVSS VL: DIQMTQSPSSLSASVGDRVTITCQASEDIYNRLAWYQQKPGKVPKLLISGASSLETGVPSRFSGSGSGKDYTFTISSLQPEDIATYYCQQYWSSPLTFGGGTKVEIKR
0.979	14.1	XENP35064 H2_L1.21 (antibody, V domains shown) VH: EVQLVQSGAEVKKPGESLRISCKTSGYTFTEYTMHWVRQMPGKSLEWMGGIDPNNGNTHYNQKFQGHVTISVDKSISTAYLQWSSLKASDTAMYYCARIYYFGRLYFDFWGAGTLVTVSS VL: DIQMTQSPSSLSASVGDRVTITCQASEDIYNRLAWYQQKPGKVPKLLISGATNLETGVPSRFSGSGSGKDYTFTISSLQPEDIATYYCQQYWSSPLTFGGGTKVEIKR
1.14	63.5	XENP35100 H2.7_L1 (antibody, V domains shown) VH: EVQLVQSGAEVKKPGESLRISCKTSGYTFTEYTMHWVRQMPGKSLEWMGGIDPNQGNTHYNQKFQGHVTISVDKSISTAYLQWSSLKASDTAMYYCARIYYFGRLYFDFWGAGTLVTVSS VL: DIQMTQSPSSLSASVGDRVTITCQASEDIYNRLAWYQQKPGKVPKLLISGATSLETGVPSRFSGSGSGKDYTFTISSLQPEDIATYYCQQYWSSPLTFGGGTKVEIKR

From patent US20240400675A1 (published 2024)
